Assay results published in US20220227809A1.
Ends that are not written are not given here.

B1: norovirus-binding peptide of SEQ ID NO: 302 (peptide)
peptide: VWWGRRISRF
modifications: also: biotinylated via PEG3 (AEEEA)-Trp spacer, attachment site and resin-derived C-terminal Lys or Cys not given here
B2: norovirus-binding peptide of SEQ ID NO: 205 (peptide)
peptide: FVWSRRTGLY
modifications: also: biotinylated via PEG3 (AEEEA)-Trp spacer, attachment site and resin-derived C-terminal Lys or Cys not given here
B3: norovirus-binding peptide of SEQ ID NO: 288 (peptide)
peptide: CKARSARGVS
modifications: also: biotinylated via PEG3 (AEEEA)-Trp spacer, attachment site and resin-derived C-terminal Lys or Cys not given here
B4: norovirus-binding peptide of SEQ ID NO: 167 (peptide)
peptide: FVWRRRAGLY
modifications: also: biotinylated via PEG3 (AEEEA)-Trp spacer, attachment site and resin-derived C-terminal Lys or Cys not given here
B5: norovirus-binding peptide of SEQ ID NO: 283 (peptide)
peptide: RSMSLHVSMT
modifications: also: biotinylated via PEG3 (AEEEA)-Trp spacer, attachment site and resin-derived C-terminal Lys or Cys not given here
B6: norovirus-binding peptide of SEQ ID NO: 103 (peptide)
peptide: RFLVPVVKVM
modifications: also: biotinylated via PEG3 (AEEEA)-Trp spacer, attachment site and resin-derived C-terminal Lys or Cys not given here
B7: norovirus-binding peptide of SEQ ID NO: 263 (peptide)
peptide: ANYRWSRSIK
modifications: also: biotinylated via PEG3 (AEEEA)-Trp spacer, attachment site and resin-derived C-terminal Lys or Cys not given here

The binders below were run against norovirus GII.17 Saitama strain virus-like particle (VLP) (norovirus GII.17 Saitama strain) (assay: BLI (BLItz), biotinylated peptide on SA chip, VLP in solution).
Work on B1 yielded a Kd of 28.4 nM, a koff of 0.0648 s⁻¹ and a kon of 2.28e+06 M⁻¹ s⁻¹. Binder B2 has a Kd of 109 nM, a koff of 0.0184 s⁻¹ and a kon of 169000 M⁻¹ s⁻¹. Work on B3 yielded a Kd of 12 nM, a koff of 0.00747 s⁻¹ and a kon of 620000 M⁻¹ s⁻¹. In the case of B4, the Kd is reported as 0.696 nM, the koff is reported as 0.00111 s⁻¹ and the kon is reported as 1.59e+06 M⁻¹ s⁻¹. B5 was tested, and the Kd was 1.39 nM, the koff was 0.00138 s⁻¹ and the kon was 994000 M⁻¹ s⁻¹. Binder B6 has a Kd of 8.13 nM, a koff of 0.0112 s⁻¹ and a kon of 1.38e+06 M⁻¹ s⁻¹.

The binders below were run against norovirus GII.3 TCH strain virus-like particle (VLP) (norovirus GII.3 TCH strain) in the same assay as above.
B2 was tested, and the Kd was 31.6 nM, the koff was 0.0325 s⁻¹ and the kon was 1.03e+06 M⁻¹ s⁻¹. For B3, the Kd was 6.86 nM, the koff was 0.0143 s⁻¹ and the kon was 2.09e+06 M⁻¹ s⁻¹. In the case of B7, the Kd is reported as 57.5 nM, the koff is reported as 0.049 s⁻¹ and the kon is reported as 851000 M⁻¹ s⁻¹. In the case of B4, the Kd is reported as 1.39 nM, the koff is reported as 0.00435 s⁻¹ and the kon is reported as 3.14e+06 M⁻¹ s⁻¹. B5 showed a Kd of 0.909 nM, a koff of 0.00715 s⁻¹ and a kon of 7.86e+06 M⁻¹ s⁻¹. B6 gave a Kd of 8.07 nM, a koff of 0.017 s⁻¹ and a kon of 2.1e+06 M⁻¹ s⁻¹.
